Test results from patent publication CN114230673A (dated 2022).

Legend:
Assay in all cases: ELISA, biotinylated recombinant protein on streptavidin plate, HRP anti-His detection
生物素标记重组人BCMA (rhBCMA) = target: T1, 生物素标记重组人BCMA (rhBCMA) (human, UniProt Q02223 1-54, biotin label (site not stated))
T1 construct: Bought protein
T1 sequence (looked up): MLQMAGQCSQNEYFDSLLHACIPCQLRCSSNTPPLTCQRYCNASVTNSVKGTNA

生物素标记重组人CD27 (rhCD27) = target: T2, 生物素标记重组人CD27 (rhCD27) (human, UniProt P26842 21-192, limits assumed, biotin label (site not stated))
T2 construct: Bought protein
T2 sequence (looked up): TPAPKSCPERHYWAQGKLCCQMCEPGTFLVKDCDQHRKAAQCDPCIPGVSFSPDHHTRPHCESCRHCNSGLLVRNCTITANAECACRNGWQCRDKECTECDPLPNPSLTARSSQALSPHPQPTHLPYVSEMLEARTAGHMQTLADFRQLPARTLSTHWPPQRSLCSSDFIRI

生物素标记重组人CD40 (rhCD40) = target: T3, 生物素标记重组人CD40 (rhCD40) (human, UniProt P25942 21-193, biotin label (site not stated))
T3 construct: Bought protein
T3 sequence (P25942 21-193 limits assumed): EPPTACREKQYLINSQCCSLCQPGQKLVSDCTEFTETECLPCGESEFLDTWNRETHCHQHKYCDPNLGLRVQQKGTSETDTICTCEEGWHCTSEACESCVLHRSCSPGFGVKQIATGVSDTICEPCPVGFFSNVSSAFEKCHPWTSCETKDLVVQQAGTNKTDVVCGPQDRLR

Measured: binding result

B1: anti-CD19 scFv (scFv)
scFv: DIQMTQTTSSLSASLGDRVTISCRASQDISKYLNWYQQKPDGTVKLLIYHTSRLHSGVPSRFSGSGSGTDYSLTISNLEQEDIATYFCQQGNTLPYTFGGGTKLEITGGGGSGGGGSGGGGSEVKLQESGPGLVAPSQSLSVTCTVSGVSLPDYGVSWIRQPPRKGLEWLGVIWGSETTYYNSALKSRLTIIKDNSKSQVFLKMNSLQTDDTAIYYCAKHYYYGGSYAMDYWGQGTSVTVSS
notes: Soluble scFv used in the ELISA and flow cytometry; also called CD19抗体; 小鼠抗人anti CD19-scFv抗体; not shown: His tag implied by the anti-His detection antibody
no binding: all assays above
